Reference: patent US6458932 (YEDA RESEARCH AND DEVELOPMENT, dated 2002)

Target: urinary IFNAB-BPII (human) (UniProt P48551)
Assay: iRIA; control antibody (dilution 1:1) captured on goat anti-mouse F(ab)2, then 125I-IFNAB-BP

Chain of urinary IFNAB-BPII (human) (P48551 other isoform, or with tags, fused parts or gaps): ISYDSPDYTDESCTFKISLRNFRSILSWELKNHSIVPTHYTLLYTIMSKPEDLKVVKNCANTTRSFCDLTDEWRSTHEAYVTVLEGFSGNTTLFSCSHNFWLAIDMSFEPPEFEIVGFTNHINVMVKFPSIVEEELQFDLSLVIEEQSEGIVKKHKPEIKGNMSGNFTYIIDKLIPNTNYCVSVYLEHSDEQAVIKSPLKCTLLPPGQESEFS

iRIA - CPM: 20 cpm
Substance: Control antibody
